From IntAct's records for PubMed 16866877 come the findings set out here.

B1: Brefeldin A-inhibited guanine nucleotide-exchange protein 2 (Homo sapiens), Q9Y6D5 (parent)
chain: MQESQTKSMFVSRALEKILADKEVKRPQHSQLRRACQVALDEIKAEIEKQRLGTAAPPKANFIEADKYFLPFELACQSKSPRVVSTSLDCLQKLIAYGHITGNAPDSGAPGKRLIDRIVETICSCFQGPQTDEGVQLQIIKALLTAVTSPHIEIHEGTILQTVRTCYNIYLASKNLINQTTAKATLTQMLNVIFTRMENQVLQEARELEKPIQSKPQSPVIQAAAVSPKFVRLKHSQAQSKPTTPEKTDLTNGEHARSDSGKVSTENGDAPRERGSSLSGTDDGAQEVVKDILEDVVTSAIKEAAEKHGLTEPERVLGELECQECAIPPGVDENSQTNGIADDRQSLSSADNLESDAQGHQVAARFSHVLQKDAFLVFRSLCKLSMKPLGEGPPDPKSHELRSKVVSLQLLLSVLQNAGPVFRTHEMFINAIKQYLCVALSKNGVSSVPDVFELSLAIFLTLLSNFKMHLKMQIEVFFKEIFLNILETSTSSFEHRWMVIQTLTRICADAQCVVDIYVNYDCDLNAANIFERLVNDLSKIAQGRSGHELGMTPLQELSLRKKGLECLVSILKCMVEWSKDLYVNPNHQTSLGQERLTDQEIGDGKGLDMARRCSVTSMESTVSSGTQTTVQDDPEQFEVIKQQKEIIEHGIELFNKKPKRGIQFLQEQGMLGTSVEDIAQFLHQEERLDSTQVGDFLGDSARFNKEVMYAYVDQLDFCEKEFVSALRTFLEGFRLPGEAQKIDRLMEKFAARYIECNQGQTLFASADTAYVLAYSIIMLTTDLHSPQVKNKMTKEQYIKMNRGINDSKDLPEEYLSSIYEEIEGKKIAMKETKELTIATKSTKQNVASEKQRRLLYNLEMEQMAKTAKALMEAVSHAKAPFTSATHLDHVRPMFKLVWTPLLAAYSIGLQNCDDTEVASLCLEGIRCAIRIACIFGMQLERDAYVQALARFSLLTASSSITEMKQKNIDTIKTLITVAHTDGNYLGNSWHEILKCISQLELAQLIGTGVKTRYLSGSGREREGSLKGHTLAGEEFMGLGLGNLVSGGVDKRQMASFQESVGETSSQSVVVAVDRIFTGSTRLDGNAIVDFVRWLCAVSMDELASPHHPRMFSLQKIVEISYYNMNRIRLQWSRIWHVIGDHFNKVGCNPNEDVAIFAVDSLRQLSMKFLEKGELANFRFQKDFLRPFEHIMKKNRSPTIRDMAIRCIAQMVNSQAANIRSGWKNIFAVFHQAASDHDGNIVELAFQTTCHIVTTIFQHHFPAAIDSFQDAVKCLSEFACNAAFPDTSMEAIRLIRFCGKYVSERPRVLQEYTSDDMNVAPGDRVWVRGWFPILFELSCIINRCKLDVRTRGLTVMFEIMKSYGHTFEKHWWQDLFRIVFRIFDNMKLPEQLSEKSEWMTTTCNHALYAICDVFTQFYEALNEVLLSDVFAQLQWCVKQDNEQLARSGTNCLENLVISNGEKFSPEVWDETCNCMLDIFKTTIPHVLLTWRPVGMEEDSSEKHLDVDLDRQSLSSIDKNPSERGQSQLSNPTDDSWKGRPYANQKLFASLLIKCVVQLELIQTIDNIVFYPATSKKEDAEHMVAAQQDTLDADIHIETEDQGMYKYMSSQHLFKLLDCLQESHSFSKAFNSNYEQRTVLWRAGFKGKSKPNLLKQETSSLACCLRILFRMYVDENRRDSWEEIQQRLLTVCSEALAYFITVNSESHREAWTSLLLLLLTKTLKINDEKFKAHASMYYPYLCEIMQFDLIPELRAVLRKFFLRIGVVYKIWIPEEPSQVPAALSPVW
partner: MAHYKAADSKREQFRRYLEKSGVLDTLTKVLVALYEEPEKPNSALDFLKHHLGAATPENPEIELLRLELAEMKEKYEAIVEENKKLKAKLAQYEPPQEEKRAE

In this assay the parent is B1. The settings on record: with mycbp_human MYCBP.
With I292P, the “effect of a mutation on the interaction” value is recorded as “decreasing interaction”.
